From paper PMC9482650, “Quantitative fragmentomics allow affinity mapping of interactomes” (Nature Communications, 2022)

Tests used:
Assay in all cases: holdup assay
Set-up in all cases: key: below the threshold = too weak to quantify, mostly under pKd 3.1 to 4
APBA2_2, Q99767 = target: T1, APBA2_2, Q99767
T1 sequence (Q99767 654-744, limits assumed, looked up): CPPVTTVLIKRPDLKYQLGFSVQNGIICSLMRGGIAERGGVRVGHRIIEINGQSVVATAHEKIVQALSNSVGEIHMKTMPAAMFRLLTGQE

RAPGEF6, Q8TEU7 = target: T2, RAPGEF6, Q8TEU7
T2 sequence (Q8TEU7 525-625, limits assumed, looked up): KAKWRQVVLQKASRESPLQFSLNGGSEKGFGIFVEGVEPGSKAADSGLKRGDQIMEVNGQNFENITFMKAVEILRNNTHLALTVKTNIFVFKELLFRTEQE

PDZD2_2, O15018 = target: T3, PDZD2_2, O15018
T3 sequence (O15018 329-429, limits assumed, looked up): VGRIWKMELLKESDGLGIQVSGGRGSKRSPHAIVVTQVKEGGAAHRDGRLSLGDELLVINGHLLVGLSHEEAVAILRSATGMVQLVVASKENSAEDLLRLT

SNTB1, Q13884 = target: T4, SNTB1, Q13884
T4 sequence (Q13884 107-205, limits assumed, looked up): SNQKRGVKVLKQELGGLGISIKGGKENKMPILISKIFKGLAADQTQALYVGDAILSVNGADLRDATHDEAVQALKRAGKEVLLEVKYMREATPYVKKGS

GRIP2_6, Q9C0E4 = target: GRIP2_6, Q9C0E4
GRIP2_6, Q9C0E4, sequence (Q9C0E4 648-740): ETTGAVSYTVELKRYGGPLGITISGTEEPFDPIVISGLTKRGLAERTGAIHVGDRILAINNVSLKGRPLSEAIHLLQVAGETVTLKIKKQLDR

DVL3, Q92997 = target: T5, DVL3, Q92997
T5 sequence (Q92997 244-331, limits assumed, looked up): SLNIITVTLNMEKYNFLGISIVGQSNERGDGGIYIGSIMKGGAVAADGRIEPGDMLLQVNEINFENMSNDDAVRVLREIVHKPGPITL

IL16_3, Q14005 = target: IL16_3, Q14005
IL16_3, Q14005, sequence (Q14005 1107-1207): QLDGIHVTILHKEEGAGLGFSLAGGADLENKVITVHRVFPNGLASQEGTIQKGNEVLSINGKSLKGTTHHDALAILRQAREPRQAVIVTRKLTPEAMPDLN

DLG1_1, Q12959 = target: DLG1_1, Q12959
MPDZ_10, O75970 = target: T6, MPDZ_10, O75970
T6 sequence (O75970 1624-1722, limits assumed, looked up): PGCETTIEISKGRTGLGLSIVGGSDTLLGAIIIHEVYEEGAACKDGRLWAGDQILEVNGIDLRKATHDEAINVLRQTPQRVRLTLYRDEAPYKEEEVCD

TJP2_1, Q9UDY2 = target: TJP2_1, Q9UDY2
TJP2_1, Q9UDY2, sequence (Q9UDY2 24-128): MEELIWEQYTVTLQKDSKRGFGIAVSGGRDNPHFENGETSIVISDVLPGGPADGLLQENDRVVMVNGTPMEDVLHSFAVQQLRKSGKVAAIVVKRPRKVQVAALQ

GRASP, Q7Z6J2 = target: GRASP, Q7Z6J2
GRASP, Q7Z6J2, sequence (Q7Z6J2 96-193): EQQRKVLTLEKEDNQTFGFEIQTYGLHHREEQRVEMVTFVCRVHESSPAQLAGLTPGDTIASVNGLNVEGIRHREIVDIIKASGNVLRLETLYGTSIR

HTRA1, Q92743 = target: HTRA1, Q92743
HTRA1, Q92743, sequence (Q92743 360-477): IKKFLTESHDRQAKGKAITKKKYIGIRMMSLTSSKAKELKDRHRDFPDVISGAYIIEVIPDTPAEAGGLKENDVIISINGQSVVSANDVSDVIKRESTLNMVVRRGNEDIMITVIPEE

NHERF4_1, Q86UT5-2 = target: NHERF4_1, Q86UT5-2
NHERF4_1, Q86UT5-2, sequence (Q86UT5 other isoform, or with tags, fused parts or gaps): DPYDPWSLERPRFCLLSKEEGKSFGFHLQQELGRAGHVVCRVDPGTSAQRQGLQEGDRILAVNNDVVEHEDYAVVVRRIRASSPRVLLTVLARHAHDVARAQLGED

IL16_4, Q14005 = target: IL16_4, Q14005
IL16_4, Q14005, sequence (Q14005 1229-1329): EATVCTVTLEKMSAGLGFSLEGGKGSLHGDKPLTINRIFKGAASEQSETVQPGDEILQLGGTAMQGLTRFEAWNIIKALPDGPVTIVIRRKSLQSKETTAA

SCRIB_2, Q14160 = target: SCRIB_2, Q14160
SCRIB_2, Q14160, sequence (Q14160 857-960): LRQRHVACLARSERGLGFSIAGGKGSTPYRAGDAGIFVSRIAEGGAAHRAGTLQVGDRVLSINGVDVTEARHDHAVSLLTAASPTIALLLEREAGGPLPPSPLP

ARHGEF11, O15085 = target: T7, ARHGEF11, O15085
T7 sequence (O15085 42-136, limits assumed, looked up): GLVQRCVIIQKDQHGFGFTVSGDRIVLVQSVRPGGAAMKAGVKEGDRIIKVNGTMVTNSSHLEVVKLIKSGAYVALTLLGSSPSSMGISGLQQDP

DLG5_1, Q8TDM6 = target: DLG5_1, Q8TDM6
DLG5_1, Q8TDM6, sequence (Q8TDM6 617-713): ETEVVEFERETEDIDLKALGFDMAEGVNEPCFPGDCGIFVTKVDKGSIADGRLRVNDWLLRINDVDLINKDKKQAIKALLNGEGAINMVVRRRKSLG

LIMK2, P53671 = target: LIMK2, P53671
LIMK2, P53671, sequence (P53671 143-248): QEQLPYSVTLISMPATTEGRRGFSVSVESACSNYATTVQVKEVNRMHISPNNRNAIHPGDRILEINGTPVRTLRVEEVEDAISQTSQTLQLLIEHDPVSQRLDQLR

SCRIB_3, Q14160 = target: SCRIB_3, Q14160
SCRIB_3, Q14160, sequence (Q14160 999-1103): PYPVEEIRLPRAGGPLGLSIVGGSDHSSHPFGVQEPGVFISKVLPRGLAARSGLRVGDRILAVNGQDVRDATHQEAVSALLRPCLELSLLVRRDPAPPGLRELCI

SNX27, Q96L92 = target: SNX27, Q96L92
TJP1_2, Q07157 = target: TJP1_2, Q07157
TJP1_2, Q07157, sequence (Q07157 181-274): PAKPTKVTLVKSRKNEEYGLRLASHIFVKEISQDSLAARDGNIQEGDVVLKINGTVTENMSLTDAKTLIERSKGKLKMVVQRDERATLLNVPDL

MPP6, Q9NZW5 = target: T8, MPP6, Q9NZW5
T8 sequence (Q9NZW5 125-219, limits assumed, looked up): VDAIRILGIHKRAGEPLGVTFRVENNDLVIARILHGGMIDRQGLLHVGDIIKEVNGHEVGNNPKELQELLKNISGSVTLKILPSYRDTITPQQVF

DFNB31_2, Q9P202 = target: T9, DFNB31_2, Q9P202
T9 sequence (Q9P202 274-371, limits assumed, looked up): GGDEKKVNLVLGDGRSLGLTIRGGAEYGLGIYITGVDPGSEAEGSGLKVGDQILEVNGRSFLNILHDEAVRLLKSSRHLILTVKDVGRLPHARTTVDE

GRIP2_3, Q9C0E4 = target: GRIP2_3, Q9C0E4
GRIP2_3, Q9C0E4, sequence (Q9C0E4 238-339): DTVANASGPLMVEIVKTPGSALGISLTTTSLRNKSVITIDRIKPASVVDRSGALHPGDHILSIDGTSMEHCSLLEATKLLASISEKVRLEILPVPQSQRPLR

APBA2_1, Q99767 = target: T10, APBA2_1, Q99767
T10 sequence (Q99767 563-664, limits assumed, looked up): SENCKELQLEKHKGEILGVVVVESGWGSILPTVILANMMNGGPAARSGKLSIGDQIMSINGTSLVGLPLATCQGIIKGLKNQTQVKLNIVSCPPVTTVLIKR

LNX2_3, Q8N448 = target: T11, LNX2_3, Q8N448
T11 sequence (Q8N448 463-564, limits assumed, looked up): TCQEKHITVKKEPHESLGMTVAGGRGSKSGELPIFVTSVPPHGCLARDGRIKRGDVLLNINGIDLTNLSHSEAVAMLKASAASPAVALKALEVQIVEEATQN

[1] = plain residues with an end cap or a label only (N-terminal biotin on a linker: ttds)
[2] = plain residues with an end cap or a label only (N-terminal biotin on a linker: ahx)

How did the pKd (APBA2_2, Q99767; [1]) turn out when EVVHTPETSV [SLC16A3, O15427] was run?
The pKd was “below the threshold”.

What about the pKd (RAPGEF6, Q8TEU7; [1]) of the same binder?
The pKd was “below the threshold”.

And the pKd (PDZD2_2, O15018; [1])?
Its pKd is 4.26.

What about the pKd (SNTB1, Q13884; [1]) of the same binder?
Its pKd is 4.76.

And the pKd (GRIP2_6, Q9C0E4; [1])?
Its pKd is “below the threshold”.

What about the pKd (DVL3, Q92997; [1]) of the same binder?
Its pKd is “below the threshold”.

And the pKd (IL16_3, Q14005; [1])?
Its pKd is “below the threshold”.

And the pKd (DLG1_1, Q12959; [1])?
The pKd was 3.87.

What about the pKd (MPDZ_10, O75970; [1]) of the same binder?
Its pKd is “below the threshold”.

What about the pKd (TJP2_1, Q9UDY2; [1]) of the same binder?
The pKd was “below the threshold”.

What about the pKd (GRASP, Q7Z6J2; [1]) of the same binder?
The pKd was “below the threshold”.

What about the pKd (HTRA1, Q92743; [1]) of the same binder?
Its pKd is “below the threshold”.

And the pKd (NHERF4_1, Q86UT5-2; [1])?
The pKd was 4.19.

And the pKd (IL16_4, Q14005; [1])?
Its pKd is “below the threshold”.

What about the pKd (SCRIB_2, Q14160; [1]) of the same binder?
The pKd was 4.48.

And the pKd (ARHGEF11, O15085; [1])?
Its pKd is 3.76.

What about the pKd (DLG5_1, Q8TDM6; [1]) of the same binder?
Its pKd is “below the threshold”.

And the pKd (LIMK2, P53671; [1])?
The pKd was “below the threshold”.

What about the pKd (SCRIB_3, Q14160; [1]) of the same binder?
The pKd was 4.58.

And the pKd (SNX27, Q96L92; [1])?
The pKd was 5.15.

And the pKd (TJP1_2, Q07157; [1])?
Its pKd is 3.83.

And the pKd (MPP6, Q9NZW5; [1])?
The pKd was “below the threshold”.

And the pKd (DFNB31_2, Q9P202; [1])?
Its pKd is “below the threshold”.

What about the pKd (GRIP2_3, Q9C0E4; [1]) of the same binder?
The pKd was “below the threshold”.

And the pKd (APBA2_1, Q99767; [1])?
Its pKd is “below the threshold”.

What about the pKd (LNX2_3, Q8N448; [1]) of the same binder?
The pKd was “below the threshold”.

Which results are given for RRRKRKRTYL [HPV49-L2, P36762]?
pKd (APBA2_2, Q99767; [2]): below the threshold; pKd (RAPGEF6, Q8TEU7; [2]): below the threshold; pKd (PDZD2_2, O15018; [2]): 3.8; pKd (SNTB1, Q13884; [2]): 3.58; pKd (GRIP2_6, Q9C0E4; [2]): below the threshold; pKd (DVL3, Q92997; [2]): 3.57; pKd (IL16_3, Q14005; [2]): below the threshold; pKd (DLG1_1, Q12959; [2]): 3.49; pKd (MPDZ_10, O75970; [2]): 3.94; pKd (TJP2_1, Q9UDY2; [2]): 5.68; pKd (GRASP, Q7Z6J2; [2]): 4.37; pKd (HTRA1, Q92743; [2]): 3.99; pKd (NHERF4_1, Q86UT5-2; [2]): 4.69; pKd (IL16_4, Q14005; [2]): below the threshold; pKd (SCRIB_2, Q14160; [2]): below the threshold; pKd (ARHGEF11, O15085; [2]): 4.01; pKd (DLG5_1, Q8TDM6; [2]): below the threshold; pKd (LIMK2, P53671; [2]): below the threshold; pKd (SCRIB_3, Q14160; [2]): 3.75; pKd (SNX27, Q96L92; [2]): below the threshold; pKd (TJP1_2, Q07157; [2]): 3.49; pKd (MPP6, Q9NZW5; [2]): below the threshold; pKd (DFNB31_2, Q9P202; [2]): below the threshold; pKd (GRIP2_3, Q9C0E4; [2]): below the threshold; pKd (APBA2_1, Q99767; [2]): below the threshold; pKd (LNX2_3, Q8N448; [2]): below the threshold

HNAFLSVTTV [PDZRN4, Q6ZMN7] was tested. Which pKd (APBA2_2, Q99767; [2]) did it give?
The pKd was “below the threshold”.

What about the pKd (RAPGEF6, Q8TEU7; [2]) of the same binder?
Its pKd is “below the threshold”.

And the pKd (PDZD2_2, O15018; [2])?
The pKd was 3.49.

And the pKd (SNTB1, Q13884; [2])?
Its pKd is 3.54.

And the pKd (GRIP2_6, Q9C0E4; [2])?
The pKd was 3.56.

What about the pKd (DVL3, Q92997; [2]) of the same binder?
The pKd was “below the threshold”.

What about the pKd (IL16_3, Q14005; [2]) of the same binder?
The pKd was “below the threshold”.

And the pKd (DLG1_1, Q12959; [2])?
The pKd was 3.54.

What about the pKd (MPDZ_10, O75970; [2]) of the same binder?
The pKd was 3.75.

And the pKd (TJP2_1, Q9UDY2; [2])?
Its pKd is “below the threshold”.

And the pKd (GRASP, Q7Z6J2; [2])?
Its pKd is 3.57.

And the pKd (HTRA1, Q92743; [2])?
Its pKd is 3.61.

What about the pKd (NHERF4_1, Q86UT5-2; [2]) of the same binder?
The pKd was 3.69.

And the pKd (IL16_4, Q14005; [2])?
The pKd was 3.58.

And the pKd (SCRIB_2, Q14160; [2])?
The pKd was 3.71.

What about the pKd (ARHGEF11, O15085; [2]) of the same binder?
The pKd was 3.59.

What about the pKd (DLG5_1, Q8TDM6; [2]) of the same binder?
The pKd was “below the threshold”.

And the pKd (LIMK2, P53671; [2])?
The pKd was “below the threshold”.

And the pKd (SCRIB_3, Q14160; [2])?
Its pKd is “below the threshold”.

What about the pKd (SNX27, Q96L92; [2]) of the same binder?
Its pKd is 3.65.

And the pKd (TJP1_2, Q07157; [2])?
Its pKd is “below the threshold”.

What about the pKd (MPP6, Q9NZW5; [2]) of the same binder?
Its pKd is 3.5.

What about the pKd (DFNB31_2, Q9P202; [2]) of the same binder?
Its pKd is “below the threshold”.

What about the pKd (GRIP2_3, Q9C0E4; [2]) of the same binder?
Its pKd is “below the threshold”.

What about the pKd (APBA2_1, Q99767; [2]) of the same binder?
Its pKd is 3.69.

What about the pKd (LNX2_3, Q8N448; [2]) of the same binder?
The pKd was “below the threshold”.
